Data: patent US9593305B2, “Differentiation of pluripotent stem cells” (Janssen Biotech, Inc., priority 2008, dated 2017)

B1: Wnt3a: Wnt3a recombinant protein (R&D Systems) (protein, UniProt P56704 19-352, looked up)
Protein Wnt-3a: SYPIWWSLAVGPQYSSLGSQPILCASIPGLVPKQLRFCRNYVEIMPSVAEGIKIGIQECQHQFRGRRWNCTTVHDSLAIFGPVLDKATRESAFVHAIASAGVAFAVTRSCAEGTAAICGCSSRHQGSPGKGWKWGGCSEDIEFGGMVSREFADARENRPDARSAMNRHNNEAGRQAIASHMHLKCKCHGLSGSCEVKTCWWSQPDFRAIGDFLKDKYDSASEMVVEKHRESRGWVETLRPRYTYFKVPTERDLVYYEASPNFCEPNPETGSFGTRDRTCNVSSHGIDGCDLLCCGRGHNARAERRREKCRCVFHWCCYVSCQECTRVYDVHTCK
B2: GDF-3: member of the GDF family of proteins (PeproTech) (protein, UniProt Q9NR23 251-364, looked up)
Growth/differentiation factor …: AAIPVPKLSCKNLCHRHQLFINFRDLGWHKWIIAPKGFMANYCHGECPFSLTISLNSSNYAFMQALMHAVDPEIPQAVCIPTKLSPISMLYQDNNDNVILRHYEDMVVDECGCG
B3: GDF-5: member of the GDF family of proteins (DePuy Orthopaedics) (protein, UniProt P43026 382-501, looked up)
Growth/differentiation factor …: APLATRQGKRPSKNLKARCSRKALHVNFKDMGWDDWIIAPLEYEAFHCEGLCEFPLRSHLEPTNHAVIQTLMNSMDPESTPPTCCVPTRLSPISILFIDSANNVVYKQYEDMVVESCGCR
B4: GDF10: member of the GDF family of proteins (R&D Systems) (protein, UniProt P55107 369-478, looked up)
Growth/differentiation factor …: QWDEPRVCSRRYLKVDFADIGWNEWIISPKSFDAYYCAGACEFPMPKIVRPSNHATIQSIVRAVGIIPGIPEPCCVPDKMNSLGVLFLDENRNVVLKVYPNMSVDTCACR
B5: GDF11: member of the GDF family of proteins (PeproTech) (protein, UniProt O95390 299-407, looked up)
Growth/differentiation factor …: NLGLDCDEHSSESRCCRYPLTVDFEAFGWDWIIAPKRYKANYCSGQCEYMFMQKYPHTHLVQQANPRGSAGPCCTPTKMSPINMLYFNDKQQIIYGKIPGMVVDRCGCS
B6: GDF15: member of the GDF family of proteins (R&D Systems) (protein, UniProt Q99988 195-308, looked up)
Growth/differentiation factor …: ARARNGDHCPLGPGRCCRLHTVRASLEDLGWADWVLSPREVQVTMCIGACPSQFRAANMHAQIKTSLHRLKPDTVPAPCCVPASYNPMVLIQKTDTGVSLQTYDDLLAKDCHCI
B7: BMP3: growth factor protein, R&D Systems (protein, UniProt P12645 363-472, looked up)
Bone morphogenetic protein 3: QWIEPRNCARRYLKVDFADIGWSEWIISPKSFDAYYCSGACQFPMPKSLKPSNHATIQSIVRAVGVVPGIPEPCCVPEKMSSLSILFFDENKNVVLKVYPNMTVESCACR

Legend:
Assay type in all cases: cell-based
[1] = system: H1 human embryonic stem cells; experiment: Definitive endoderm formation with TGF superfamily members, SOX17 and cell number (Example 14); settings: dose titration with Wnt3a, Compound 34, or both
Protocol: Clusters were centrifuged at low speed to collect a cell pellet and remove residual dispase. […] All human embryonic stem cell lines were maintained at passage numbers less than 50 and routinely evaluated for normal karyotype and absence of mycoplasma.
Cells were washed again three times with PBS and blocked with 4% chicken serum (Invitrogen; Cat #16110082) in PBS for 30 minutes at room temperature. […] Plates were washed once with PBS and left in 100 μl/well PBS for imaging.

[2] = system: H1 human embryonic stem cells; experiment: Secondary assay: compound combined with individual growth factors or small molecules, no activin A (Example 5, Table 4); settings: agent combined with 2.5 μM compound and Wnt3a, no activin A
Protocol: Clusters of H1 human embryonic stem cells were grown on reduced growth factor […]™ (Invitrogen; Cat #356231)-coated tissue culture plastic. Cells were passaged using collagenase (Invitrogen; Cat #Cat #17104-019) treatment and gentle scraping, washed to remove residual enzyme, and plated with even dispersal at a ratio of 1:1 (surface area) on reduced growth factor […]™-coated 96-well black plates (Packard ViewPlates; PerkinElmer; Cat #6005182) using volumes of 100 μl/well. Cells were allowed to attach as clusters and then recover log phase growth over a 1 to 3 day period, feeding daily with MEF conditioned medium supplemented with 8 ng/ml bFGF (R&D Systems; Cat #233-FB). Plates were maintained at 37° C., 5% CO2 in a humidified box throughout the duration of assay.
Other agents tested were purchased as follows: BMP-7 (Sigma; Cat #B1434), LY294002 (Cayman; Cat 70920), PD98059, U0126, U0124 (EMD Biosciences; Cat #453710), muscimol (Tocris; Cat #0289), biuculline (Tocris; Cat #0130), sodium butyrate (Sigma; Cat #B5887). All growth factors were solubilized in PBS with 0.1% BSA (Sigma; Cat #A7888) and stored frozen at −80° C. Small molecules were solubilized in 100% DMSO (Sigma; Cat #D2650) and stored frozen at −80° C. The compounds were available as 5 mM stocks in 96-well plate format, solubilized in 100% DMSO and stored at −80° C. The compounds of the present invention were further diluted to an intermediate concentration of 0.2 mM in 50 mM HEPES (Invitrogen; Cat #15630-080), 20% DMSO and stored at 4° C. All growth factors and inhibitors were prepared in a deep well, 96-well polypropylene plate, diluted to 5× intermediate stocks in DMEM:F12 base medium at the beginning of assay and stored at 4° C.
A secondary screening assay was conducted, testing in triplicate and feeding on alternate days over the four-day assay timeframe. Assays were initiated by aspirating culture medium from each well followed by three washes in PBS to remove residual growth factors and serum. Test volumes of 80 μl per well were added back containing DMEM:F12 base medium (Invitrogen; Cat #11330-032) supplemented with 0.625% FCS (HyClone; Cat #SH30070.03), 25 ng/ml Wnt3a (R&D Systems), and 3.125 μM compound plus 20 μl 5× stock of growth factor or small molecule to yield a final concentration of 0.5% FCS, 20 ng/ml Wnt3a, and 2.5 μM compound. […] Final assay concentrations of small molecules tested were as follows: muscimol (20 μM), PD98059 (1 μM), LY294002 (2.5 μM), 00124 (1 μM), U0126 (1 μM), sodium butyrate (0.5 mM). Positive control wells (100 μl/well) contained the same base medium supplemented with 0.5% FCS, 20 ng/ml Wnt3a and 100 ng/ml activin A. Negative control wells (100 μl/well) contained the same base medium with 0.5% FCS and 20 ng/ml Wnt3a, omitting activin A.
On day 3, wells were aspirated and fed with 80 μl DMEM:F12 base medium supplemented with 2.5% FCS (HyClone) and 3.125 μM cyclic aniline-pyridinotriazine compound plus 20 μl 5× stock of growth factors or small molecules per well to yield a final concentration of 2% FCS and 2.5 μM compound (omitting Wnt3a) and as denoted on day one for all remaining growth factors or small molecules. Positive control wells (100 μl/well) contained the same base medium supplemented with 2% FCS and 100 ng/ml activin A, omitting Wnt3a. Negative control wells (100 μl/well) contained the same base medium with 2% FCS, omitting both activin A and Wnt3a.
At the conclusion of four-days of culture, assay plates were washed twice with PBS, fixed with 4% paraformaldehyde (Alexis Biochemical; Cat #ALX-350-011) at room temperature for 20 minutes, then washed three times with PBS and permeabilized with 0.5% Triton X-100 (Sigma; Cat #T8760-2) for 20 minutes at room temperature. Cells were washed again three times with PBS and blocked with 4% chicken serum (Invitrogen; Cat #16110082) in PBS for 30 minutes at room temperature.

[3] = system: H1 human embryonic stem cells; experiment: Definitive endoderm formation with GDF family members, SOX17 and cell number (Example 13); settings: for SOX17 expression, GDF growth factor substituting for activin A: 100 ng/ml GDF, alone or with Wnt3a, Compound 34 or Compound 56, four days
Protocol: Stock cultures of human embryonic stem cells (H1 human embryonic stem cell line) were maintained in an undifferentiated, pluripotent state on reduced growth factor […]™ (BD Biosciences; Cat #356231)-coated dishes in MEF conditioned medium with passage on average every four days. Passage was performed by exposing cell cultures to a solution of 1 mg/ml dispase (Invitrogen; Cat #17105-041) for 5 to 7 minutes at 37° C. followed by rinsing the monolayer with MEF conditioned culture medium and gentle scraping to recover cell clusters. Clusters were centrifuged at low speed to collect a cell pellet and remove residual dispase. Cell clusters were split at a 1:3 or 1:4 ratio for routine maintenance culture or a 1:1 ratio for immediate assay. All human ES cell lines were maintained at passage numbers less than 50 and routinely evaluated for normal karyotype and absence of mycoplasma.
Cell clusters were evenly resuspended in MEF conditioned medium supplemented with 8 ng/ml bFGF and seeded onto reduced growth factor […]™-coated 96-well Packard VIEWPLATES (PerkinElmer; Cat #6005182) in volumes of 0.1 ml/well. Daily feeding was conducted by aspirating spent culture medium from each well and replacing with an equal volume of fresh medium. Plates were maintained at 37° C., 5% CO2 throughout the duration of assay.
The assay was initiated by aspirating the culture medium from each well and adding back aliquots (100 μl) of test medium. Test conditions were performed in triplicate over a total four-day assay period, feeding on day 1 and day 3 by aspirating and replacing the medium from each well with fresh test medium. Various members of the GDF family of proteins were obtained for testing as follows: GDF-3 (PeproTech; Cat #120-22); GDF-5 (DePuy Orthopaedics, Inc., a Johnson & Johnson company); GDF-8 (R&D Systems; Cat #788-G8); GDF-10 (R&D Systems; Cat #1543-BP); GDF11 (PeproTech; Cat #120-11); GDF-15 (R&D Systems; Cat #957-GD). On the first day of assay, all wells received an aliquot (80 μl) of basal medium DMEM:F12 medium (Invitrogen; Cat #11330-032) supplemented with 0.5% fetal bovine serum (Hyclone; Cat #SH30070.03). A series of five different control or experimental test samples was created to evaluate activin A or various GDFs in combination with Wnt3a or Compound 34 or Compound 56. These test samples were added in 20 μl aliquots (5× concentrated) to appropriately matched assay wells to yield a final assay volume of 100 μl in each well at the final assay conditions indicated. In the first set of control samples, the following conditions were tested: 1) no additive (i.e. no supplementary growth factor or small molecule); 2) 100 ng/ml activin A (PeproTech; Cat #120-14) in combination with 20 ng/ml Wnt3a (R&D Systems; Cat #1324-WN/CF); 3) 20 ng/ml Wnt3a alone; 4) Compound 34 alone (2.5 μM) without any growth factor or small molecule; 5) Compound 56 alone (2.5 μM) without any growth factor or small molecule. In the second set of test samples, the following conditions were tested in combination with 100 ng/ml GDF3: 1) no additive (i.e. GDF-3 alone); 2) 20 ng/ml Wnt3a; 3) 20 ng/ml Wnt3a with Compound 34 (2.5 μM); 4) Compound 34 (2.5 μM); 5) Compound 56 (2.5 μM); and 6) 20 ng/ml Wnt3a with Compound 56 (2.5 μM). In the third set of test samples, each of the six conditions was combined with 100 ng/ml GDF-5. In the fourth set of test samples, each of the six conditions was combined with 100 ng/ml GDF-8. In the fifth set of test samples, each of the six conditions was combined with 100 ng/ml GDF-10. In the sixth set of test samples, each of the six conditions was combined with 100 ng/ml GDF-11. In the seventh set of test samples, each of the six conditions was combined with 100 ng/ml GDF-15. On the third day of assay, all wells for all test samples, received 100 ng/ml Activin A or 100 ng/ml respective GDF growth factor, without Wnt3a or Compound 34 or Compound 56, diluted into DMEM:F12 medium supplemented with 2% FBS. […]

| Molecule | induction of SOX17 expression compared to the Wnt3a treatment alone [1] | SOX17 expression, GDF growth factor substituting for activin A [3] | other results |
| --- | --- | --- | --- |
| TGFβ-1: TGF superfamily growth factor, R&D Systems | weak or negligible | – | – |
| BMP-4: member of the BMP family, R&D Systems | weak or negligible | – | effect on SOX17 expression [2]: inhibited or had negligible effects on SOX17 expression; cell numbers at the conclusion of assay [1]: significant effect on cell numbers |
| B1 | – | – | SOX17 expression, reagent alone ([3]; 20 ng/ml Wnt3a or 2.5 μM compound alone, four days): failed to induce SOX17 expression |
| B2 | – | induced weak expression of SOX17 | – |
| B3 | – | induced weak expression of SOX17 | – |
| B4 | – | induced significant levels of SOX17 expression | – |
| B5 | – | induced significant levels of SOX17 expression | – |
| B6 | – | induced significant levels of SOX17 expression | – |
| B7 | weak or negligible | – | – |
